Legend:
[1] = biological target: T1, integrin αvβ3, purified from human placenta (human, UniProt P06756 31-1048; P05106 27-788); assay: SPR (BIAcore), purified Fab over immobilized αvβ3
T1 construct: mature; Native heterodimer, immobilized on ELISA plates or on the BIAcore chip; biotinylated in capture lift and capture ELISA screens; also called αvβ3 receptor; vitronectin receptor
Method: The affinities of select variants were further characterized by utilizing surface plasmon resonance (BIAcore) to measure the association and dissociation rates of purified Fab with immobilized αᵥβ₃. […] To obtain association rate constants (kₒₙ), the binding rate at five different Fab concentrations, ranging from 5-40 μg/ml in 50 mM Tris-HCl, pH 7.4, 100 mM NaCl, 2 mM CaCl₂, and 1 mM MgCl₂, was determined at a flow rate of 10 μl/min. Dissociation rate constants (koff) were the average of five measurements obtained by analyzing the dissociation phase at an increased flow rate (40 μl/min). Sensorgrams were analyzed with the BIAevaluation 2.1 program (Pharmacia). Residual Fab was removed after each measurement with 10 mM HCl, 2 mM CaCl₂ and 1 mM MgCl₂.

[2] = biological target: T1, integrin αvβ3, purified from human …; assay: ELISA titration of Fab on immobilized αvβ3
Method: Just prior to use, the plates were washed two times and were then incubated 1 h at 25° C. with various dilutions of Fab. […] All dilutions and washes were in 50 mM Tris-HCl, pH 7.4, 100 mM NaCl, 2 mM CaCl₂, and 1 mM MgCl₂.

T1 sequence (P06756 31-1048, form in doubt, chain 1 of 2): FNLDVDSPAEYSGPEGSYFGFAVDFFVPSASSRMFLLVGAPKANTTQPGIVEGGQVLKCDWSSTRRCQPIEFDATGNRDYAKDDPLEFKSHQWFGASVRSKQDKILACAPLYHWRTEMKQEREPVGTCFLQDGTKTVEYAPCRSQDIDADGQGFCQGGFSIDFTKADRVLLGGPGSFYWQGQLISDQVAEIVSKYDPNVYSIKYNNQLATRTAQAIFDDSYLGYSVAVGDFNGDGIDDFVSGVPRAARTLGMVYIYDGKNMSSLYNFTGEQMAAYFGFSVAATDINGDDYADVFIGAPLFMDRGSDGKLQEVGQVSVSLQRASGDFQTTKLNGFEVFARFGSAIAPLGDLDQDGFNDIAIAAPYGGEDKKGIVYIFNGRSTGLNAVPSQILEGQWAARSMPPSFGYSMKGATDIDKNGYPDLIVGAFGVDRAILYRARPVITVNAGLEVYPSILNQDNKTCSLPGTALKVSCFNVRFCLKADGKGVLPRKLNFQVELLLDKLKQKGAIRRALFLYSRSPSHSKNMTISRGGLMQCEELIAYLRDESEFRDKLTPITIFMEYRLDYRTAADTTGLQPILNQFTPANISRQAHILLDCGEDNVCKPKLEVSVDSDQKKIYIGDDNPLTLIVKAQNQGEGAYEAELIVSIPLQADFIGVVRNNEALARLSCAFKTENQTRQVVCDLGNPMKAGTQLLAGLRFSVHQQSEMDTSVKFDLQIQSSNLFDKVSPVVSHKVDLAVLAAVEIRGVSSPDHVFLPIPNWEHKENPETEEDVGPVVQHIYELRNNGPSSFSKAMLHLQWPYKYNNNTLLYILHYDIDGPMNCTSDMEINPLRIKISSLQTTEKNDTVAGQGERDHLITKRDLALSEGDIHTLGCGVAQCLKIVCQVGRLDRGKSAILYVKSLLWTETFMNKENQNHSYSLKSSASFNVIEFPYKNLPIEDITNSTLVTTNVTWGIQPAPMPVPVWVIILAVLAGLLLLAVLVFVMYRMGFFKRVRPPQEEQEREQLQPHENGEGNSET
T1 sequence (P05106 27-788, form in doubt, chain 2 of 2): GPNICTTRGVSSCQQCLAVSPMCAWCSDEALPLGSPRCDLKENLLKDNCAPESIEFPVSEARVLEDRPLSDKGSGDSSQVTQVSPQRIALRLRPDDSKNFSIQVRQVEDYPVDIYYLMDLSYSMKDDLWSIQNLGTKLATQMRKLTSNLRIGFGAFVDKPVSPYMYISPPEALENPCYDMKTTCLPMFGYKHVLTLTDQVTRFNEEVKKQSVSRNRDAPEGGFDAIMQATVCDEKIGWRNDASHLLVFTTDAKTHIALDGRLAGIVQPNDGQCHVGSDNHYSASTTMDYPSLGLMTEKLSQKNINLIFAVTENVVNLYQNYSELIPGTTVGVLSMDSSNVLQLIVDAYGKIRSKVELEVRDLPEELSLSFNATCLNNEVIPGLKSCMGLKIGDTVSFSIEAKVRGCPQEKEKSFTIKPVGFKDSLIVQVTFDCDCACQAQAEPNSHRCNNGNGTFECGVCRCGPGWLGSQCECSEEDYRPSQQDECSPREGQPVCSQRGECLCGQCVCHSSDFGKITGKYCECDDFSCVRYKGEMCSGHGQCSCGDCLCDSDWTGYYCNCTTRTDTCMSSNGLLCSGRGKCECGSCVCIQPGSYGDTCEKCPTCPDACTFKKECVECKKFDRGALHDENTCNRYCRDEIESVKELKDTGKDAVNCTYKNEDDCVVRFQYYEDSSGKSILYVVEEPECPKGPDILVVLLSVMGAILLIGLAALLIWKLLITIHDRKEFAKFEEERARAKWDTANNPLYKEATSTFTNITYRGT

Kd [1]	koff [1]	kon [1]	fold enhanced binding over parent LM609 grafted antibody [2]	Binder
			> 3 fold	LM609 grafted antibody variant S51 (Fab, V domains shown, Fab) VH: QVQLVESGGGVVQPGRSLRLSCAASGFTFSSYDMSWVRQAPGKGLEWVAKVSSGGGSTYYLDTVQGRFTISRDNSKNTLYLQMNSLRAEDTAVYYCARHNYGSFAYWGQGTTVTVSS VL: EIVLTQSPATLSLSPGERATLSCQASQSISNHLHWYQQRPGQAPRLLIRYSSQSISGIPARFSGSGSGTDFTLTISSLEPEDFAVYYCQQSGSWPHTFGGGTKVEIK
			> 3 fold	LM609 grafted antibody variant Q96 (Fab, V domains shown, Fab) VH: QVQLVESGGGVVQPGRSLRLSCAASGFTFSSYDMSWVRQAPGKGLEWVAKVSSGGGSTYYLDTVQGRFTISRDNSKNTLYLQMNSLRAEDTAVYYCARHNYGSFAYWGQGTTVTVSS VL: EIVLTQSPATLSLSPGERATLSCQASQSISNHLHWYQQRPGQAPRLLIRYRSQSISGIPARFSGSGSGTDFTLTISSLEPEDFAVYYCQQSGSWPQTFGGGTKVEIK
			> 3 fold	LM609 grafted antibody variant T27 (Fab, V domains shown, Fab) VH: QVQLVESGGGVVQPGRSLRLSCAASGTTFSSYDMSWVRQAPGKGLEWVAKVSSGGGSTYYLDTVQGRFTISRDNSKNTLYLQMNSLRAEDTAVYYCARHNYGSFAYWGQGTTVTVSS VL: EIVLTQSPATLSLSPGERATLSCQASQSISNHLHWYQQRPGQAPRLLIRYRSQSISGIPARFSGSGSGTDFTLTISSLEPEDFAVYYCQQSGSWPHTFGGGTKVEIK
5.7 nM	0.00135 s⁻¹	236000 M⁻¹ s⁻¹	> 3 fold	LM609 grafted antibody variant N92 (Fab, V domains shown, Fab; also called LM609 grafted antibody having Asn at position 92 of light chain CDR3) VH: QVQLVESGGGVVQPGRSLRLSCAASGFTFSSYDMSWVRQAPGKGLEWVAKVSSGGGSTYYLDTVQGRFTISRDNSKNTLYLQMNSLRAEDTAVYYCARHNYGSFAYWGQGTTVTVSS VL: EIVLTQSPATLSLSPGERATLSCQASQSISNHLHWYQQRPGQAPRLLIRYRSQSISGIPARFSGSGSGTDFTLTISSLEPEDFAVYYCQQSNSWPHTFGGGTKVEIK
			> 3 fold	LM609 grafted antibody variant T92 (Fab, V domains shown, Fab) VH: QVQLVESGGGVVQPGRSLRLSCAASGFTFSSYDMSWVRQAPGKGLEWVAKVSSGGGSTYYLDTVQGRFTISRDNSKNTLYLQMNSLRAEDTAVYYCARHNYGSFAYWGQGTTVTVSS VL: EIVLTQSPATLSLSPGERATLSCQASQSISNHLHWYQQRPGQAPRLLIRYRSQSISGIPARFSGSGSGTDFTLTISSLEPEDFAVYYCQQSTSWPHTFGGGTKVEIK
5.8 nM	0.00185 s⁻¹	318000 M⁻¹ s⁻¹	> 3 fold	LM609 grafted antibody variant P60 (Fab, V domains shown, Fab) VH: QVQLVESGGGVVQPGRSLRLSCAASGFTFSSYDMSWVRQAPGKGLEWVAKVSSGGGSTYYPDTVQGRFTISRDNSKNTLYLQMNSLRAEDTAVYYCARHNYGSFAYWGQGTTVTVSS VL: EIVLTQSPATLSLSPGERATLSCQASQSISNHLHWYQQRPGQAPRLLIRYRSQSISGIPARFSGSGSGTDFTLTISSLEPEDFAVYYCQQSGSWPHTFGGGTKVEIK
			> 3 fold	LM609 grafted antibody variant W29 (Fab, V domains shown, Fab) VH: QVQLVESGGGVVQPGRSLRLSCAASGFTWSSYDMSWVRQAPGKGLEWVAKVSSGGGSTYYLDTVQGRFTISRDNSKNTLYLQMNSLRAEDTAVYYCARHNYGSFAYWGQGTTVTVSS VL: EIVLTQSPATLSLSPGERATLSCQASQSISNHLHWYQQRPGQAPRLLIRYRSQSISGIPARFSGSGSGTDFTLTISSLEPEDFAVYYCQQSGSWPHTFGGGTKVEIK

More lines, now with the values behind:

Binder	Kd [1]	koff [1]	kon [1]	fold enhanced binding over parent LM609 grafted antibody [2]
LM609 grafted antibody variant A102 (Fab, V domains shown, Fab) VH: QVQLVESGGGVVQPGRSLRLSCAASGFTFSSYDMSWVRQAPGKGLEWVAKVSSGGGSTYYLDTVQGRFTISRDNSKNTLYLQMNSLRAEDTAVYYCARHNYGSFAAWGQGTTVTVSS VL: EIVLTQSPATLSLSPGERATLSCQASQSISNHLHWYQQRPGQAPRLLIRYRSQSISGIPARFSGSGSGTDFTLTISSLEPEDFAVYYCQQSGSWPHTFGGGTKVEIK	8.3 nM	0.00227 s⁻¹	275000 M⁻¹ s⁻¹	> 3 fold
LM609 grafted antibody variant K52 (Fab, V domains shown, Fab) VH: QVQLVESGGGVVQPGRSLRLSCAASGFTFSSYDMSWVRQAPGKGLEWVAKVKSGGGSTYYLDTVQGRFTISRDNSKNTLYLQMNSLRAEDTAVYYCARHNYGSFAYWGQGTTVTVSS VL: EIVLTQSPATLSLSPGERATLSCQASQSISNHLHWYQQRPGQAPRLLIRYRSQSISGIPARFSGSGSGTDFTLTISSLEPEDFAVYYCQQSGSWPHTFGGGTKVEIK	12.2 nM	0.00218 s⁻¹	178000 M⁻¹ s⁻¹	> 3 fold
LM609 grafted antibody variant E102 (Fab, V domains shown, Fab) VH: QVQLVESGGGVVQPGRSLRLSCAASGFTFSSYDMSWVRQAPGKGLEWVAKVSSGGGSTYYLDTVQGRFTISRDNSKNTLYLQMNSLRAEDTAVYYCARHNYGSFAEWGQGTTVTVSS VL: EIVLTQSPATLSLSPGERATLSCQASQSISNHLHWYQQRPGQAPRLLIRYRSQSISGIPARFSGSGSGTDFTLTISSLEPEDFAVYYCQQSGSWPHTFGGGTKVEIK				> 3 fold
LM609 grafted antibody variant L96 (Fab, V domains shown, Fab) VH: QVQLVESGGGVVQPGRSLRLSCAASGFTFSSYDMSWVRQAPGKGLEWVAKVSSGGGSTYYLDTVQGRFTISRDNSKNTLYLQMNSLRAEDTAVYYCARHNYGSFAYWGQGTTVTVSS VL: EIVLTQSPATLSLSPGERATLSCQASQSISNHLHWYQQRPGQAPRLLIRYRSQSISGIPARFSGSGSGTDFTLTISSLEPEDFAVYYCQQSGSWPLTFGGGTKVEIK	9.2 nM	0.00223 s⁻¹	243000 M⁻¹ s⁻¹	> 3 fold
LM609 grafted antibody variant L30 (Fab, V domains shown, Fab) VH: QVQLVESGGGVVQPGRSLRLSCAASGFTFLSYDMSWVRQAPGKGLEWVAKVSSGGGSTYYLDTVQGRFTISRDNSKNTLYLQMNSLRAEDTAVYYCARHNYGSFAYWGQGTTVTVSS VL: EIVLTQSPATLSLSPGERATLSCQASQSISNHLHWYQQRPGQAPRLLIRYRSQSISGIPARFSGSGSGTDFTLTISSLEPEDFAVYYCQQSGSWPHTFGGGTKVEIK				> 3 fold
LM609 grafted antibody variant M102 (Fab, V domains shown, Fab) VH: QVQLVESGGGVVQPGRSLRLSCAASGFTFSSYDMSWVRQAPGKGLEWVAKVSSGGGSTYYLDTVQGRFTISRDNSKNTLYLQMNSLRAEDTAVYYCARHNYGSFAMWGQGTTVTVSS VL: EIVLTQSPATLSLSPGERATLSCQASQSISNHLHWYQQRPGQAPRLLIRYRSQSISGIPARFSGSGSGTDFTLTISSLEPEDFAVYYCQQSGSWPHTFGGGTKVEIK				> 3 fold
LM609 grafted antibody variant D102 (Fab, V domains shown, Fab) VH: QVQLVESGGGVVQPGRSLRLSCAASGFTFSSYDMSWVRQAPGKGLEWVAKVSSGGGSTYYLDTVQGRFTISRDNSKNTLYLQMNSLRAEDTAVYYCARHNYGSFADWGQGTTVTVSS VL: EIVLTQSPATLSLSPGERATLSCQASQSISNHLHWYQQRPGQAPRLLIRYRSQSISGIPARFSGSGSGTDFTLTISSLEPEDFAVYYCQQSGSWPHTFGGGTKVEIK	3.5 nM	0.00097 s⁻¹	276000 M⁻¹ s⁻¹	> 3 fold
